“And” between values parts separate entries of the source, which are not always exact repeats. Identical values can stand only once.
T1: recombinant cynomolgus monkey TNFR2 (Cyno. TNFR2) (Sino Biological, 90102-C021) (cynomolgus monkey, UniProt A0A2K5VET2 132-366)
T1 sequence: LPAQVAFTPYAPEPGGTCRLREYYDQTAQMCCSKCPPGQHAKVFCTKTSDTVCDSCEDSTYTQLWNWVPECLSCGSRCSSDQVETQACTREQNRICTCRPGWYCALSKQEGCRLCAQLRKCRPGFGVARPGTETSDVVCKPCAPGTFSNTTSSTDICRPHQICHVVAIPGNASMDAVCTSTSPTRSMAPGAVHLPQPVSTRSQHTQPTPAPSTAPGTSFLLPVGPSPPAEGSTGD

T2: recombinant human TNFR2 antigen (Kangdai, batch number A100114U) (human, UniProt P20333 23-257)
T2 construct: also called hTNFR2; TNFR2-FC (Shanghai Saijin Biopharmaceutical Co., Ltd., Qiangke, catalog number A100114U); not shown: Fc part of the bought TNFR2-FC
T2 sequence (looked up): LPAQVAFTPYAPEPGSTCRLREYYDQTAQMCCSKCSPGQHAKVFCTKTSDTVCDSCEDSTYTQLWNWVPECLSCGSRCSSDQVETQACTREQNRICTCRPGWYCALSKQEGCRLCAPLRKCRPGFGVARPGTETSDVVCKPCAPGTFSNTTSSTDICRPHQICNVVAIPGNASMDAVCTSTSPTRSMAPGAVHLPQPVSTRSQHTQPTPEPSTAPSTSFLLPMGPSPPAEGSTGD

T3: recombinant mouse TNFR2 (mTNFR2) (Sino Biological, 50128-M08H) (mouse, UniProt P25119 23-258)
T3 sequence (looked up): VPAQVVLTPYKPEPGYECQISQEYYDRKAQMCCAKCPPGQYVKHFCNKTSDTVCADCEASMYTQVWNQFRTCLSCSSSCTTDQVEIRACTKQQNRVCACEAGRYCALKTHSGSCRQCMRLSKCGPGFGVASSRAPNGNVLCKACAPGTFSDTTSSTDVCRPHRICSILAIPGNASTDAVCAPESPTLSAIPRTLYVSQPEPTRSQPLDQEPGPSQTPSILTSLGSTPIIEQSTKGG

T4: human TNFR2 on the cell membrane (human, UniProt P20333 23-461)
T4 construct: whole, on cells; One molecule for all cell formats; also called TNFR2-CHO cells; CHO-TNFR2
T4 sequence (looked up): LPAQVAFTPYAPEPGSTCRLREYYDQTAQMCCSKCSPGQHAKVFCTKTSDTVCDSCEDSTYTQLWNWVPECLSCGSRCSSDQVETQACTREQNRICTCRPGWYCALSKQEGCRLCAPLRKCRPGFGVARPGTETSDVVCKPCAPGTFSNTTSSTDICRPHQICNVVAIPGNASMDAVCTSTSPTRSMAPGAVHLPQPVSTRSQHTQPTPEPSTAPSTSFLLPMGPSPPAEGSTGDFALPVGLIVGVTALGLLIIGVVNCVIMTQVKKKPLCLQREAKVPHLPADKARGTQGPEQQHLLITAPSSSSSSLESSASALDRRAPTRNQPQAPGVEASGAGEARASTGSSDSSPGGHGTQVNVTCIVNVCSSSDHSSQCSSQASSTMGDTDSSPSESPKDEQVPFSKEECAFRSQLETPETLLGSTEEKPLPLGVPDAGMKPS

T5: TNFR2-His (Sino Biological, 10417-H08H, NP_001057.1 Met1-Asp257, with multi-histidine tag expressed on … (human, UniProt P20333 23-257))
T5 construct: range 1-257; Bought protein; also called recombinant human TNFR2 protein; TNFR2-His antigen; not shown: C-terminal multi-histidine tag
T5 sequence (looked up): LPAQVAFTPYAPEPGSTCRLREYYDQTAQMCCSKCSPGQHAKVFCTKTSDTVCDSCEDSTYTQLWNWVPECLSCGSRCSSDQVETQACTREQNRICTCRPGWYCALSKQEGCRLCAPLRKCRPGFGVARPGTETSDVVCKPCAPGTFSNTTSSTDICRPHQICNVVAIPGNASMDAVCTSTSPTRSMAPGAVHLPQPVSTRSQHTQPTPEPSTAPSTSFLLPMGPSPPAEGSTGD


Tests used:
[1] = molecular target: T1, recombinant cynomolgus monkey TNFR2 …; experiment: ELISA, plate coated with recombinant cynomolgus monkey TNFR2
Procedure: (§1) After TMB development, the detection was performed using microplate reader: dual wavelength 450 nm/655 nm detection, and results were calculated by OD₄₅₀-OD₆₅₅.
(§2) Using the same method as above, the TNFR2 antigens of cynomolgus monkey and mouse (Sino Biological, 90102-C021 and 50128-M08H) were coated separately. The anti-human TNFR2 mouse monoclonal antibodies to be tested were gradient diluted, then added with the anti-mouse Fab segment secondary antibody (Jackson Immuno Research, 515-035-072), and TMB development was performed. ELISA was used to detect the binding of 8 strains of mouse monoclonal antibodies to recombinant mouse TNFR2 (mTNFR2) and cynomolgus monkey TNFR2 (Cyno. TNFR2).

[2] = molecular target: T2, recombinant human TNFR2 antigen …; experiment: ELISA, plate coated with recombinant human TNFR2 antigen
Procedure: as §1

[3] = molecular target: T2, recombinant human TNFR2 antigen …; experiment: ELISA, coated recombinant human TNFR2
Procedure: as §1

[4] = molecular target: T3, recombinant mouse TNFR2 (mTNFR2) (Sino …); experiment: ELISA, coated mouse TNFR2
Procedure: as §1, §2

[5] = molecular target: T4, human TNFR2 on the cell membrane; experiment: flow cytometry on CHO-TNFR2 cells
Outline: (§3)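 To build the cell line, CHO cells received a pcDNA3.4 construct encoding human TNFR2, underwent drug selection and were single-clone sorted. Serial antibody dilutions were incubated with these cells in 96-deep-well plates, followed by washing and detection with a fluorescent anti-IgG secondary antibody on a Beckman CytoFLEX. The reported EC50 is taken from the dilution series.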

[6] = molecular target: T4, human TNFR2 on the cell membrane; experiment: flow cytometry, CHO-TNFR2 cells; CHO-TNFR2 cells
Outline: as §3

[7] = molecular target: T5, TNFR2-His (Sino Biological, 10417-H08H, …); experiment: ELISA, plate coated with TNFR2-His
Outline: (§4)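 Recombinant human TNFR2 with a C-terminal His tag was coated onto plates, which were then blocked. Antibodies in serial dilution were incubated on the plates, followed by an enzyme-labelled anti-IgG secondary antibody. After TMB development, plates were read on a microplate reader, and EC50 was derived from the dilution series.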

[8] = molecular target: T5, TNFR2-His (Sino Biological, 10417-H08H, …); experiment: ELISA, coated TNFR2-His
Outline: as §4

[9] = molecular target: T5, TNFR2-His (Sino Biological, 10417-H08H, …); experiment: BLI, antibody captured on AHC probe, TNFR2-His in solution
Outline: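 On an Octet run in Basic Kinetics mode, bio-layer interferometry was used to obtain Kon, koff and Kd from kinetic association measurements. Antibodies (50 nM in Q buffer) were held on antibody-capture sensors before exposure to recombinant human TNFR2 in a 2-fold dilution series in Q buffer from a top concentration of 100 nM.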

Row | Binder | EC50 [1] | EC50 [2] | EC50 [3] | binding result [4] | EC50 [5] | EC50 [6] | EC50 [7] | EC50 [8] | Kd [9] | koff [9] | kon [9]
1 | anti-human TNFR2 mouse monoclonal antibody 13F5 (antibody, V domains shown) VH: QVQLQQSGAELVRPGTSVKMSCKASGYTFTNYWIGWTKQRPGHGLEWIGDIFPGGDFTNYNEKFKGKATLTADKSSSTAYLQFSSLTSEDSAIYYCSRRRFTTIVAPGFDYWGQGTTLTVSS VL: QLVLTQSSSASFSLGASAKLTCTLSSQHSMYTIEWYQQQPLKPPKFVMELKKDGSHSTGDGIPDRFSGSSSGADRYLNISNIQPEDEAIYICGVGDTIKEQFVYVFGGGTEVTVL | > 1 µg/mL and > 6.7 nM | 0.428 nM | 0.0638 µg/mL | no binding |  |  |  |  |  |  | 
2 | 11G2huVH2 + huVL2(P07267) (antibody, V domains shown, Humanized 11G2) VH: QVQLVQSGAEVKKPGASVKVSCKASGYTFITYDINWVRQAPGQGLEWIGWIYPRDGNTQFNENFKGRVTMTTDTSTSTAYMELRSLRSDDTAVYYCARGDRDYGYFDVWGQGTTVTVSS VL: DIQMTQSPSSLSASVGDRVTITCRASQDISNYLNWYQQKPGKAPKLLIYFKSKLHSGVPSRFSGSGSGTDFTLTISSLQPEDFATYYCQQGNTLPLTFGGGTKLEIK |  |  |  |  | 0.0214 µg/mL | 0.144 nM | 0.0421 µg/mL | 0.282 nM | 7.3 nM | 0.00205 s⁻¹ | 280000 M⁻¹ s⁻¹
3 | 11G2huVH3 + huVL2(P07268) (antibody, V domains shown, Humanized 11G2) VH: QVQLVQSGAEVKKPGASVKVSCKASGYTFITYDINWVRQATGQGLEWIGWIYPRDGNTQFNENFQGRVTMTRNTSISTAYMELSSLRSEDTAVYYCARGDRDYGYFDVWGQGTTVTVSS VL: DIQMTQSPSSLSASVGDRVTITCRASQDISNYLNWYQQKPGKAPKLLIYFKSKLHSGVPSRFSGSGSGTDFTLTISSLQPEDFATYYCQQGNTLPLTFGGGTKLEIK |  |  |  |  | 0.0299 µg/mL | 0.2 nM | 0.0404 µg/mL | 0.271 nM | 7.28 nM | 0.0022 s⁻¹ | 302000 M⁻¹ s⁻¹
4 | 11G2huVH3 + huVL1(P07264) (antibody, V domains shown, Humanized 11G2) VH: QVQLVQSGAEVKKPGASVKVSCKASGYTFITYDINWVRQATGQGLEWIGWIYPRDGNTQFNENFQGRVTMTRNTSISTAYMELSSLRSEDTAVYYCARGDRDYGYFDVWGQGTTVTVSS VL: DIQMTPSTSSLSASVGDRVTITCRASQDISNYLNWYQQKPGKAVKLLIYFKSKLHSGVPSRFSGSGSGTDFTLTISSLQPEDFATYYCQQGNTLPLTFGGGTKLELK |  |  |  |  | 0.0275 µg/mL | 0.184 nM | 0.049 µg/mL | 0.328 nM | 5.1 nM | 0.00161 s⁻¹ | 316000 M⁻¹ s⁻¹
5 | 11G2huVH1 + huVL1(P07262) (antibody, V domains shown, Humanized 11G2) VH: QVQLVQSGAEVKKPGASVKLSCKASGYTFITYDINWVRQAPGQGLEWIGWIYPRDGNTQFNENFKGKATMTVDESTSTAYMEVRSLRSDDTAVYYCARGDRDYGYFDVWGQGTTVTVSS VL: DIQMTPSTSSLSASVGDRVTITCRASQDISNYLNWYQQKPGKAVKLLIYFKSKLHSGVPSRFSGSGSGTDFTLTISSLQPEDFATYYCQQGNTLPLTFGGGTKLELK |  |  |  |  | 0.0009 µg/mL | 0.006 nM | 0.0141 µg/mL | 0.095 nM | 4.79 nM | 0.00115 s⁻¹ | 239000 M⁻¹ s⁻¹
6 | 11G2huVH4 + huVL1(P07265) (antibody, V domains shown, Humanized 11G2) VH: QVQLVQSGAEVKKPGASVKVSCKASGYTFITYDINWVRQAPGQGLEWIGWIYPRDGNTQYAQKFQGRVTMTTDTSTSTAYMELRSLRSDDTAVYYCARGDRDYGYFDVWGQGTTVTVSS VL: DIQMTPSTSSLSASVGDRVTITCRASQDISNYLNWYQQKPGKAVKLLIYFKSKLHSGVPSRFSGSGSGTDFTLTISSLQPEDFATYYCQQGNTLPLTFGGGTKLELK |  |  |  |  | 0.0256 µg/mL | 0.171 nM | 0.0427 µg/mL | 0.286 nM | 9.76 nM | 0.00255 s⁻¹ | 261000 M⁻¹ s⁻¹
7 | 11G2huVH5 + huVL1(P07266) (antibody, V domains shown, Humanized 11G2) VH: QVQLVQSGAEVKKPGASVKVSCKASGYTFITYDINWVRQATGQGLEWIGWIYPRDGNTQYAQKFQGRVTMTRNTSISTAYMELSSLRSEDTAVYYCARGDRDYGYFDVWGQGTTVTVSS VL: DIQMTPSTSSLSASVGDRVTITCRASQDISNYLNWYQQKPGKAVKLLIYFKSKLHSGVPSRFSGSGSGTDFTLTISSLQPEDFATYYCQQGNTLPLTFGGGTKLELK |  |  |  |  | 0.0014 µg/mL | 0.01 nM | 0.014 µg/mL | 0.094 nM | 7.29 nM | 0.00163 s⁻¹ | 223000 M⁻¹ s⁻¹
8 | 11G2huVH2 + huVL1(P07263) (antibody, V domains shown, Humanized 11G2) VH: QVQLVQSGAEVKKPGASVKVSCKASGYTFITYDINWVRQAPGQGLEWIGWIYPRDGNTQFNENFKGRVTMTTDTSTSTAYMELRSLRSDDTAVYYCARGDRDYGYFDVWGQGTTVTVSS VL: DIQMTPSTSSLSASVGDRVTITCRASQDISNYLNWYQQKPGKAVKLLIYFKSKLHSGVPSRFSGSGSGTDFTLTISSLQPEDFATYYCQQGNTLPLTFGGGTKLELK |  |  |  |  | 0.0229 µg/mL | 0.153 nM | 0.0502 µg/mL | 0.336 nM | 5.96 nM | 0.00171 s⁻¹ | 287000 M⁻¹ s⁻¹
